# Laboratory results from doi:10.1101/2023.03.06.531343.
# Molecular target: VirE2-Venus (expressed in transgenic Arabidopsis roots) (Agrobacterium tumefaciens) (UniProt P0A3W8)
# Assay: co-IP
# UniProt P0A3W8, sequence (P0A3W8 whole entry): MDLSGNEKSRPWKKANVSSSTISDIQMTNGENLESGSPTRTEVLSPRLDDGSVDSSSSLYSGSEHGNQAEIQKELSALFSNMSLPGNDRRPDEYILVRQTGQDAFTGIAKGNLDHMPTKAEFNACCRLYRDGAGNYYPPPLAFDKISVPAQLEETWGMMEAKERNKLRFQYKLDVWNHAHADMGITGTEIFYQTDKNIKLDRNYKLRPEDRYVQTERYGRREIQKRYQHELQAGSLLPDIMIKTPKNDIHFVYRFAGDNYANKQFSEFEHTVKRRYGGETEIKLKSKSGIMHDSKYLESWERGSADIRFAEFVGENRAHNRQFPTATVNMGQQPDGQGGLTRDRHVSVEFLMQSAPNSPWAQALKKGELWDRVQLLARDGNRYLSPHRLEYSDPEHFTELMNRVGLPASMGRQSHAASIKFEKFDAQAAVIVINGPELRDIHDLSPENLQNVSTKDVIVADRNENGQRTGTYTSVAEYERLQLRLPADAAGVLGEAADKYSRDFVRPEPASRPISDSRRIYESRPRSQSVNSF
row,Substance,percent of the input co-immunoprecipitated (% of the input)
1,myc-tagged myosin VIII-B cargo binding domain (transgenic Arabidopsis roots) (domain or fragment),4
2,myc-tagged myosin VIII-2 cargo binding domain (transgenic Arabidopsis roots) (domain or fragment),4
3,myc-tagged myosin VIII-A cargo binding domain (transgenic Arabidopsis roots) (domain or fragment),4
4,myc-tagged myosin XI-K cargo binding domain (transgenic Arabidopsis roots) (domain or fragment),4
